The values below come from PMC3285272 (Cell, 2012).

The target in assay [1] is T1, βδ-COP dimer with full-length β-COP L124E (R. norvegicus | B. taurus, UniProt P23514 1-953; P53619 1-511, L124E).
T1 sequence (looked up) 1: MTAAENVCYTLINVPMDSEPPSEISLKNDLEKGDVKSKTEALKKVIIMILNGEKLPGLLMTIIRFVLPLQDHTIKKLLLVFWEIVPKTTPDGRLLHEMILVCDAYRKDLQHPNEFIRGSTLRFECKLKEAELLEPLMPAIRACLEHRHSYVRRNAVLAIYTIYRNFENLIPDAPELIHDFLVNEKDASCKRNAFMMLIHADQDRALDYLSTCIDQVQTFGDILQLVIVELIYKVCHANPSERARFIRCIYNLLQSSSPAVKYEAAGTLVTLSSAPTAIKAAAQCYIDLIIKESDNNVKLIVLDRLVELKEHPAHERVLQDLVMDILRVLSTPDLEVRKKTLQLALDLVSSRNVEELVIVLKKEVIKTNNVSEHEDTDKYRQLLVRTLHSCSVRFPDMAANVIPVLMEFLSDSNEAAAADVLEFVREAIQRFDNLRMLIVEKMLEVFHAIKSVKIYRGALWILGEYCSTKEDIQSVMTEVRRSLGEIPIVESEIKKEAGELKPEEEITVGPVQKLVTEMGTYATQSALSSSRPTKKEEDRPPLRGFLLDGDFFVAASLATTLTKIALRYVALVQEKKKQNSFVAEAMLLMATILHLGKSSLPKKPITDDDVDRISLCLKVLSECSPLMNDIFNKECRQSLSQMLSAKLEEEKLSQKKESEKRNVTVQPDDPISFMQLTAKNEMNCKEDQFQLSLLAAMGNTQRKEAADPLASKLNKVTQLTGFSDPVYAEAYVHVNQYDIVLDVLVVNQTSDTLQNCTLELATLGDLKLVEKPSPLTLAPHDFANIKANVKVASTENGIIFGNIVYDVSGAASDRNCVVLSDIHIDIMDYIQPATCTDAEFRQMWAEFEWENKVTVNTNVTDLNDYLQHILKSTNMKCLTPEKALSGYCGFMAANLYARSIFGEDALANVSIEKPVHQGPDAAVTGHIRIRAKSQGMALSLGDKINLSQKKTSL
T1 sequence (looked up) 2: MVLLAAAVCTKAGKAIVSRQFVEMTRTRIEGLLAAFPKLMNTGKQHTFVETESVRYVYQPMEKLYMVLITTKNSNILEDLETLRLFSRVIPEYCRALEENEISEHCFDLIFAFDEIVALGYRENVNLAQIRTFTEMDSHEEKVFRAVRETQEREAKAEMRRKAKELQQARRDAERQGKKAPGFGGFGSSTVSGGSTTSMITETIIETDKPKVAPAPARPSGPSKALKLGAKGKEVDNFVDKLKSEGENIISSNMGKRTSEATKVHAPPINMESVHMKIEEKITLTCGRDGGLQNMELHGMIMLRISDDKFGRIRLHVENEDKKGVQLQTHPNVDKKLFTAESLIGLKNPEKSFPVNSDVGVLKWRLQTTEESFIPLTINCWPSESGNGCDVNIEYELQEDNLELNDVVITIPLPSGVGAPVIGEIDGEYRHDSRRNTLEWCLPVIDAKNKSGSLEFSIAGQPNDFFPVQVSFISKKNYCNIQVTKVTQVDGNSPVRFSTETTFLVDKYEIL
Description: pull-down.

Assay [2] addresses T2, γζ-COP core complex (bovine γ-COP 1–355 plus ζ-COP 1–153) (B. taurus, UniProt P53620 1-355; P35604 1-153).
T2 sequence (looked up) 1: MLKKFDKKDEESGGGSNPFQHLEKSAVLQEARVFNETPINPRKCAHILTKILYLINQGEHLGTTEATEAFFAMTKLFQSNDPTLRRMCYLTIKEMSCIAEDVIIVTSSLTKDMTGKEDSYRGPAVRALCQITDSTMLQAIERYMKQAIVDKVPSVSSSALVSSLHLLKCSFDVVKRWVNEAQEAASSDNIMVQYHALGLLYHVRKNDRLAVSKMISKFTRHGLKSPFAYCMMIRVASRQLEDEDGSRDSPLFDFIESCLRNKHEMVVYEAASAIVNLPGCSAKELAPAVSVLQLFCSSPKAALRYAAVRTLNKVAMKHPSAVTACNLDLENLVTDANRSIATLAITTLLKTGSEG
T2 sequence (looked up) 2: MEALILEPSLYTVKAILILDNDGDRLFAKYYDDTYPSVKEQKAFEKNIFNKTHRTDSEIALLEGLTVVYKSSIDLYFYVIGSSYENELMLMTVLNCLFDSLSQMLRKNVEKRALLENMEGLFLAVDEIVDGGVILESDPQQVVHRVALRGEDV
Description: pull-down.

B1: S. cerevisiae Arf1 (residues 18–181) with a C-terminal GST tag (domain or fragment, UniProt P11076 18-181, looked up)
chain: MRILMVGLDGAGKTTVLYKLKLGEVITTIPTIGFNVETVQYKNISFTVWDVGGQDRIRSLWRHYYRNTEGVIFVVDSNDRSRIGEAREVMQRMLNEDELRNAAWLVFANKQDLPEAMSAAEITEKLGLHSIRNRPWFIQATCATSGEGLYEGLEWLSNSLKNST
In the case of B1, the binding result in assay [1] and in assay [2] was “binds” in each case.
